Here are results for two molecules from patent publication US20220153792A1 (INSTITUTE FOR RESEARCH IN BIOMEDICINE, published 2022).

This assay has as its target T1, histidine tagged HMGB1 (High-Mobility-Group-Protein 1) (Homo sapiens (Human), UniProt P09429 1-215, limits assumed, labeled with the his-tag specific NT-647 dye).
T1 construct: also called high-mobility protein box 1; not shown: histidine tag
T1 sequence: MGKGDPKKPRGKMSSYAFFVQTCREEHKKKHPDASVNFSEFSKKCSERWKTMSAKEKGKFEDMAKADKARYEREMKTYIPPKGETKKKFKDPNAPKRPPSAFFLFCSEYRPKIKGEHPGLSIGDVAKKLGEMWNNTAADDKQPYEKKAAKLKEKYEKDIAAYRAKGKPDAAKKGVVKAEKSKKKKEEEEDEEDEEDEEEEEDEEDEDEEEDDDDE
Kind of assay: MST, NT-647-labelled His-tagged HMGB1, peptide titrated.

B1: Pentapept-2 (peptide)
peptide: ERWIH
notes: Last five residues of HBP08 (ERWIH)
The term Kd denotes the concentration at which binding is half-saturated. The low end stands for higher affinity, the high end for lower affinity. On to B1, for which the Kd worked out at 200 µM.

B2: Pentapept-1 (peptide)
peptide: GYHYE
notes: First five residues of HBP08 (GYHYE)
Turning to B2, the binding result is recorded as “no binding (tested: highest peptide concentration 500 µM)”.
